The source of these data is patent US11124779B2, “Compositions and methods for treating and preventing pancreatitis, renal injury and cancer” (Yale University, priority 2014, dated 2021).

Data set [1] has as its system HK-2 cells. Briefly: In vitro model of cisplatin toxicity: HK-2 cell survival by the WST-1 method. The format is cell-based, human. The following applies: 20 μM cisplatin, 24 hrs; test substance 80 μg/ml. The method, then: FIG. 1B is a graph depicting the effect of renalase peptides on survival of HK-2 cells exposed to 20 μM cisplatin for 24 hrs; cell survival is depicted as % change in survival compared to that in cisplatin-treated HK-2 cells without renalase peptides; cell survival was measured by the WST-1 method; RP-A220: mutated RP-220, and RP-19 and RP-128: control peptides; peptide concentration (μg/ml) indicated in top line; n=4, *=p<0.05. […]
HK-2 cells (human proximal tubular line) obtained from ATTC (Manassas, Va., USA) were cultured in DMEM/F12 supplemented with glutamine, 10% FBS and antibiotics, and were maintained at 37° C. in 5% CO2. Cells were exposed to cisplatin (20 μM) in the presence or absence of recombinant renalase or renalase peptides for 24 hrs, and cell viability was assessed by the WST1 method (Roche Applied Science, Germany).
A general note: Tetrazolium assays rely on reduction of a dye to a coloured formazan, in cell work by metabolically active cells.

The target of data set [2] is PMCA (Homo sapiens, UniProt P23634). Description: Ca2+ efflux through PMCA, time lapse confocal microscopy, HK2 cells. The class given is cell-based. As for the experimental part: FIGS. 12A-12F, depict the results of experiments showing renalase increases Ca^2+ efflux through PCMA. Changes in whole cell cytosolic Ca^2+ were recorded with the Ca^2+ dye Fluo-4 (HK2 cells) or Fluo-5 (acinar cell) by time lapse confocal microscopy. FIGS. 12A, 12B, 12D, and 12E are representative plots of fluorescence over time in HK2 cells (FIGS. 12A and 12B) or mouse acinar cells (FIGS. 12D and 12E). Cells were pretreated with 30 μM cyclopiazonic acid and perfused with Ca^2+-free medium. Cells were briefly stimulated with 10 nM angiotensin IV (Ang in HK2 cells) or 100 nM cerulein (Cer in acinar cells) in the presence of 1.3 mM Ca^2+. […] For FIGS. 12C and 12F, the rate of Ca^2+ efflux was quantified from 30 cells/treatment group. *p<0.05 vs. no renalase. […]
PMCA selectively binds renalase (FIG. 6). […] Since the protective effects of renalase were first characterized in HK-2 cells (human kidney cell line) (Lee et al., 2013, J Am Soc Nephrol 24, 445-455; Wang et al., 2014, Journal of the American Society of Nephrology: JASN), its effects on Ca^2+ signals were evaluated in these cells and subsequently in mouse acinar cells (FIG. 12). […] Perfusion buffer was then switched back to Ca^2+-free medium in the presence or absence of renalase, and cytosolic Ca^2+ levels were monitored over time and the rates of Ca^2+ efflux were calculated (FIG. 12). […]

Data set [3] deals with WT mice. Description: Cerulein-induced pancreatitis in vivo. Also on record: species or system mouse. Conditions: single IP dose 2 hours after initiating cerulein pancreatitis; sacrificed at hour 7. As for the experimental part: FIGS. 10A-10G, depict the results of experiments showing that pretreatment with renalase peptide (RP-220) ameliorates cerulein-induced pancreatitis in vivo. WT mice were treated with 6 hourly IP injections of cerulein (CER, 40 mcg/kg). IP renalase peptide, RP-220 (renalase, 1.3 mg/kg) was given 1 hour before first cerulein injection. (FIG. 10A) Pancreatic trypsin activation measured with fluorogenic substrate, normalized to total protein. (FIG. 10B) Edema measured as % wet weight. (FIG. 10C) Apoptosis evaluated by TUNEL positive cells. (FIG. 10D) Neutrophils (Ly-6B) and (FIG. 10E) macrophages (F4/80) were quantified. Pancreas H&E sections (FIG. 10G) were evaluated for edema, pyknotic nucei, and vacuoles to derive morphological score (FIG. 10F). *p<0.05 vs. WT-CER, +/−SEM, n=5.
A single dose of renalase was given intraperitoneally (100 μg peptide/25 g body weight) 2 hours after inducing cerulein-pancreatitis. Six hourly injections IP of 50 μg/kg and animals were sacrificed at hour 7. Histologic pancreatitis severity was evaluated by two blinded reviewers. […] N=4 mice in each group.
To determine whether the protective of renalase observed in isolated acini was relevant in vivo, WT mice were pretreated (1 hour) with a single dose of the renalase peptide (RP-220) intraperitoneally (100 μg peptide/25 g body weight) prior to inducing cerulein-pancreatitis (6 hourly injections IP of 50 μg/kg). […]

Data set [4] has as its system renalase KO mice. The following applies: Wang et al., 2014; cited from earlier work.

“Also recorded” adds a separate entry of the source.

Sequence of PMCA (P23634 1-1205 isoform P23634-6): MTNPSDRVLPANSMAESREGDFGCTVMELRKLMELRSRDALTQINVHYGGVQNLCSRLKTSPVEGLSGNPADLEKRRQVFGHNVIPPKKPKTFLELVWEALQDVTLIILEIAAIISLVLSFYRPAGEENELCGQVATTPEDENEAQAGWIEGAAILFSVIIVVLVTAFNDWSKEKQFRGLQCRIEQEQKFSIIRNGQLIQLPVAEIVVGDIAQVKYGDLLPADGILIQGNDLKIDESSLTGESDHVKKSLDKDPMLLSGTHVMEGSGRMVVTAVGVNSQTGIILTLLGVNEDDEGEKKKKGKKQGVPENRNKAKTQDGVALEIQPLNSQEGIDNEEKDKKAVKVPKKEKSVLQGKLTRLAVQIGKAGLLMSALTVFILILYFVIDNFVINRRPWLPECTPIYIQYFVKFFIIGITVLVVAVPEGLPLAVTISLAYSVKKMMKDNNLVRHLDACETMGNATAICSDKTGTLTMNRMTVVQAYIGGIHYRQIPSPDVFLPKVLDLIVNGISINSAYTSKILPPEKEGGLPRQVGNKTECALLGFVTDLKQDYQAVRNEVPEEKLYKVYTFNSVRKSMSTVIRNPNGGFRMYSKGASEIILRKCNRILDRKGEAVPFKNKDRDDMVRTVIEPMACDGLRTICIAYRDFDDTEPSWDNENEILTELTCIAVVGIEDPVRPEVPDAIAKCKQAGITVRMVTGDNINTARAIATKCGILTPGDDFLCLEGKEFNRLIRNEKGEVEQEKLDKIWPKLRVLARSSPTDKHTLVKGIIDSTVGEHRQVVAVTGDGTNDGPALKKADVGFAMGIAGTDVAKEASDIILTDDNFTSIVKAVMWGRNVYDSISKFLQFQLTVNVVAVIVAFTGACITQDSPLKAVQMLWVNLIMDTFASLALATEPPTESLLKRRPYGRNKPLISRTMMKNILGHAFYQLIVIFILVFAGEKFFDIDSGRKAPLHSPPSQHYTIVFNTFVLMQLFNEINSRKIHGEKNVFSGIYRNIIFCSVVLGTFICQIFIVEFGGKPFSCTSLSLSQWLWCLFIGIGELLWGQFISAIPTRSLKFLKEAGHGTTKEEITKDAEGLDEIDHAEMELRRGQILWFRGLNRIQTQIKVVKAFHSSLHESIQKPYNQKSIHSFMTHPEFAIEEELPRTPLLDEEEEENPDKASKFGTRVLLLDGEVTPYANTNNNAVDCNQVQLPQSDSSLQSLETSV

B1: recombinant renalase: recombinant full-length human renalase, secretory flavoprotein oxidase; synthesized as in Desir et al., 2012; SEQ ID NO: 8 or 9 (protein)
chain: ALLRRQTSGPLYLAVWDKAEDSGGRMTTACSPHNPQCTADLGAQYITCTPHYAKKHQRFYDELLAYGVLRPLSSPIEGMVMKEGDCNFVAPQGISSIIKHYLKESGAEVYFRHRVTQINLRDDKWEVSKQTGSPEQFDLIVLTMPVPEILQLQGDITTLISECQRQQLEAVSYSSRYALGLFYEAGTKIDVPWAGQYITSNPCIRFVSIDNKKRNIESSEIGPSLVIHTTVPFGVTYLEHSIEDVQELVFQQLENILPGLPQPIATKCQKWRHSQVTNAAANCPGQMTLHHKPFLACGGDGFTQSNFDGCITSALCVLEALKNYI
As for B1, the “survival of HK-2 cells exposed to cisplatin (protective effect)” value in data set [1] is on record as “protected HK-2 cells to a similar degree”. Also, the “baseline Ca2+ levels” value in data set [2] is recorded as “did not change”. Further, the “rate of Ca2+ efflux” value in data set [2] (10 nM angiotensin IV, Ca2+-free and Na+-free medium, cyclopiazonic acid) is “increased”. For the same molecule, the “individual and aggregate histologic scores of pancreatitis” value in data set [3] is given as “significantly decreased injury; also recorded: significantly less”. In data set [4], the “activating MAPK signaling in renalase KO mice” value is “neither renalase nor RP-220 is effective” and the “protecting renalase KO mice against mild or severe ischemic AKI” value is “neither renalase nor RP-220 is effective”.
